Data on two substances can be found in patent US20190275196A1, “Hemostatic Powders with Self-Assembling Peptide Hydrogels” (3-D Matrix, Ltd., priority 2016, published 2019).

Common to all, as to format: physicochemical
A short description of data set [1]: Congo Red assay of gel formation of peptide solutions with hemostatic powders. The settings on record: for gel formation when mixed with hemostatic powder compared with pure peptide solution: Congo Red assay, visual. As to the method: A Congo Red assay was performed to determine gel formation of peptide solutions in a saline buffer solution (pH 7.4) when used with hemostatic powders.
Pure self-assembling peptide solution (PuraMatrix®), and peptide solution/hemostatic powders (Surgiflo®, Ethicon) mixtures were plated on a glass slide. After 30 seconds, 1% Congo Red solution in saline buffer solution (pH 7.4) was added around and on top of the gel aliquots and then the excess Congo Red solution was wiped off prior to examination. Visualization of gel formation determined the success or failure of gelation. […] In (1) and (2), self-assembling peptide solution (PuraMatrix®) before and after Congo red assay, respectively is shown. In (3) and (4), PuraMatrix® mixed with absorbable gelatin powder (Surgiflo®, Ethicon) at a ratio of 2 to 1 (v/w) before and after Congo red assay, respectively is shown. In (5) and (6), PuraMatrix® mixed with absorbable gelatin powder (Surgiflo®, Ethicon) at a ratio of 5 to 1 (v/w) before and after Congo red assay, respectively is shown.
Pure self-assembling peptide solution (IEIK13 1.3% at pH3.0) and peptide solution/hemostatic powders (Surgiflo®, Ethicon) mixture were plated on a glass slide. After 30 seconds, 1% Congo Red solution in saline buffer solution ([…]) was added around and on top of the gel aliquots and then the excess Congo Red solution was wiped off prior to examination. Visualization of gel formation determined the success or failure of gelation. […] In (1) and (2), self-assembling peptide solution (IEIK13 1.3% at pH 3.0) before and after Congo Red assay, respectively, is shown. In (3) and (4), IEIK13 1.3% at pH 3.0 mixed with absorbable gelatin powder, (Surgiflo®, Ethicon) at a ratio of 2 to 1 (v/w) before and after Congo Red assay, respectively, is shown. The interval of grids in FIG. 8 is 1 cm.

Data set [2] can be described thus: Apparent miscibility of gelatin powder with peptide solution or saline (syringe mixing). The settings on record: various mixing ratios, mixed between two luer-lock syringes, plated on glass slide. The protocol: Gelatin powder (Surgiflo®) was separately mixed with saline and RADA16 2.5% solution (PuraMatrix®) to determine their apparent miscibility. Gelatin powders were placed in a luer-lock syringe and saline or RADA16 2.5% solution (PuraMatrix®) was placed in another luer-lock syringe. The syringes were connected to mix the contents of the two syringes by moving the plungers back and forth, for example, six times until the consistency was even. The mixtures were plated on a glass slide. FIG. 3 presents images of gelatin powder (Surgiflo®) and saline mixtures (upside images) and gelatin powder and RADA16 2.5% (PuraMatrix®) mixtures at various mixing ratios.
Gelatin powder (Surgiflo®) was mixed with IEIK13 1.3% (pH 3.0) solution to determine its apparent miscibility. Gelatin powders were placed in a luer-lock syringe and IEIK13 1.3% (pH 3.0) was placed in another luor-lock syringe. The syringes were connected to mix contents of the two syringes by moving the plungers back and forth, for example, six times until the consistency was even. The mixtures were plated on a glass slide. FIG. 9 presents images of gelatin powder (Surgiflo®) and IEIK13 mixtures at various mixing ratios.

Data set [3] is described as follows: Rheology (storage/loss modulus, frequency sweep) before and after DMEM treatment. The settings on record: DMEM for 20 min; 25° C.; 1-10 rad/sec. As to the method:
The rheological properties of gelatin powders with saline, self-assembling peptide, and gelatin powder with self-assembling peptide were evaluated using a rheometer (DHR-1, TA Instruments) with 20 mm plates. The samples were placed on the rheometer plate and the moduli were measured at 25° C. with the plates placed at a measuring geometry gap of 1000 μm. Measurements were performed after 2 minutes of relaxation time at 25° C. Frequency sweep tests were performed at 1 rad/sec˜10 red/sec of oscillation stress with strain at 0.01.
Pure RADA16 2.5% (PuraMatrix®), gelatin powder (Surgiflo®) mixed with saline at 2:1 w/v ratio, and gelatin powder mixed with RADA16 2.5% at various mixing ratios were all tested. These samples were treated with DMEM for 20 min after their frequency tests were performed without DMEM treatment. FIG. 4 presents the rheology of gelatin powders mixed with saline at a ratio of 2:1 w/v before and after DMEM treatment. FIG. 5 presents the rheology of RADA16 2.5% solution before and after DMEM treatment. FIG. 6 presents the rheology of gelatin powders mixed with RADA16 2.5% at a ratio of 1:5 w/v before and after DMEM treatment.

Where [4] appears, read: peptide solution mixed with gelatin powder (Surgiflo®) at a ratio of 2 to 1 (v/w), 1% Congo Red in saline buffer solution (pH 7.4).

As for “IEIK13 1.3% (pH3.0): self-assembling peptide having the repeating sequence Ile-Glu-Ile-Lys (IEIK), 1.3% solution at pH 3.0”, the “gel formation when mixed with hemostatic powder compared with pure peptide solution” value in data set [1] was “gelled even when mixed with hemostatic powder to a similar extent as observed in pure peptide solution”. The “gel formation (gelation)” value is listed as “capable of gelation” in data set [1] (mixed with a hemostatic powder at a ratio of 5 to 1, expected, not tested) and “capable of gelation” in data set [1] (setting [4]). Besides, the “apparent miscibility with gelatin powder (Surgiflo®)” value was “capable of homogenous mixture” in data set [2] and “homogeneously mixed across various mixing ratios” in data set [2] (listed as IEIK13).
As for RADARADARADARADA [RADA16 2.5%], the “change of moduli (storage/loss) after DMEM treatment” value in data set [3] is “increased”. In addition, the “gel formation when mixed with hemostatic powder compared with pure peptide solution” value in data set [1] is on record as “gelled even when mixed with hemostatic powder to a similar extent as observed in pure peptide solution”. The “gel formation (gelation)” value is given as “capable of gelation” in data set [1] (setting [4]) and “capable of gelation” in data set [1] (peptide solution mixed with gelatin powder (Surgiflo®) at a ratio of 5 to 1 (v/w), 1% Congo Red in saline buffer solution (pH 7.4)). Also, the “apparent miscibility with gelatin powder (Surgiflo®)” value in data set [2] is recorded as “capable of homogenous mixture”; in data set [2] (listed as RADA16), “homogeneously mixed across various mixing ratios”.
